Patent US20180273626A1 (Stanford University, published 2018)
Substitutions are numbered along the chain they refer to. Names and notes keep the numbering of the source.

T1: CD23 on B cells (human, UniProt P06734 1-321)
T1 construct: whole, on cells; also called CD23 receptor; CD23+ B-cells
T1 sequence (looked up): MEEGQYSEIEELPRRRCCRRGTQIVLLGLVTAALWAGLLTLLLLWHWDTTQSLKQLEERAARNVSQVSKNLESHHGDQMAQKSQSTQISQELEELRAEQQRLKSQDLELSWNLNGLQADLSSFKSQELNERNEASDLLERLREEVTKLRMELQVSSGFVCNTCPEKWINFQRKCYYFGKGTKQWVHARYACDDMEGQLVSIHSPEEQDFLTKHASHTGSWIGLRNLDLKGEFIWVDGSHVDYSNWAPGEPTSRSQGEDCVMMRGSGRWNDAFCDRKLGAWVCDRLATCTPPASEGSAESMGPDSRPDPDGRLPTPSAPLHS

T2: FcεRI on primary human basophils (human, UniProt P12319 26-257)
T2 construct: whole, on cells; on cells it stands with gamma chains (and a beta chain); also called FcεRIα on basophils; E2_79-treated basophils
T2 sequence (looked up): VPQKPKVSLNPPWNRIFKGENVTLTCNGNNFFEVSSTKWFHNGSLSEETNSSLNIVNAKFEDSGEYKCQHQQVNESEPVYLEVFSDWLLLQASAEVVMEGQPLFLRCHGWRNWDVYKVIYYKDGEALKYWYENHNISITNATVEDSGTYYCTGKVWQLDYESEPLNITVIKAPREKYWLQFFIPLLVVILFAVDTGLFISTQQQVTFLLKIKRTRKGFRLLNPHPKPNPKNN

B1: IgE-R419N-Fc3-4 (other)
chain: CADSNPRGVSAYLSRPSPFDLFIRKSPTITCLVVDLAPSKGTVNLTWSRASGKPVNHSTRKEEKQRNGTLTVTSTLPVGTRDWIEGETYQCNVTHPHLPRALMRSTTKTSGPRAAPEVYAFATPEWPGSRDKRTLACLIQNFMPEDISVQWLHNEVQLPDARHSTTQPRKTKGSGFFVFSRLEVTRAEWEQKDEFICRAVHEAASPSQTVQRAVSVNP
modifications: additional N-linked glycan at N419 (Asn-92 of SEQ ID NO: 2)
notes: Mammalian derived (HEK-6E); biotinylated in the basophil exchange assays; also called R419N-IgE-Fc3-4; R419N mutant
B2: IgE-Fc3-4 (other)
chain: B1 chain with N92R
notes: Made both in insect cells (High Five) and in mammalian cells (HEK-6E); the mammalian protein, biotinylated, was used in the cell assays; also called wild-type IgE-Fc3-4; WT IgE-Fc3-4

How the values were obtained:
[1] = target: T1, CD23 on B cells; test: summary sentence of Example 1
[2] = target: T2, FcεRI on primary human basophils; test: flow cytometry on primary human basophils, anti-biotin staining
From the text: (§1) Blood was drawn from two healthy volunteers and a third volunteer with a history of food allergy ranging in age from 21 to 37 (the protocol for this study was approved by the Institutional Review Board of Stanford University, and all informed consent was obtained from all subjects). Blood was collected in heparin vacutainer tubes (BD), and washed in 10 blood volumes of BF buffer (RPMI-1640 (Life Technologies) supplemented with 10% fetal calf serum (FCS; Gibco) and 1% penicillin/streptomycin (Gibco)). […] The following day cells were washed three times with BF buffer at 4° C. and stained for analysis.
(§2) Stained cells were then lysed with RBS lysis buffer (BioLegend) for 5 min at room temperature, and washed with FACS buffer (PBS pH 7.4 supplemented with 10% FCS). Data were collected on a DxP FACSCAN from Cytek Development in Fremont, Calif. (10 colors with three lasers—488, 639, 407) using FlowJo CE and analyzed using FlowJo (version 10).

[3] = target: T1, CD23 on B cells; test: flow cytometry on CD23+ B cells
From the text: as §1, §2

Binder	binding result [1]	binding result [2]	binding result [3]
B1	binds	binds	–
B2	–	binds	binds
